These results are taken from US6468740.

surface (amide) = not defined here

Test [1] addresses monoclonal antibody D32.39.
Test [2] addresses monoclonal antibody D32.39. The experiment in a line: solution competition of free peptide against radiolabeled dynorphin B peptide for D32.39.
The target in test [3] is monoclonal antibody D32.39. The source holds these as a separate data set.

Ac-RQFK-{surface (amide)} (reading uncertain; also: C-terminus amide-linked to surface) [RQFK, surface-immobilized peptide] registered a Normalized Intensity (%) in test [1] of 13%.

Molecule Ac-FLRRQFK-{surface (amide)} (reading uncertain; also: C-terminus amide-linked to surface) [FLRRQFK, surface-immobilized peptide] came in with a Normalized Intensity (%) in test [1] of 10%.

Turning to Ac-FKVV-{surface (amide)} (reading uncertain) [FKVV, surface-immobilized peptide], the Normalized Intensity (%) in test [1] is 10%. The same measure, in the same setting: then Ac-RQFKVVT-{surface (amide)} (reading uncertain; also: C-terminus amide-linked to surface) [RQFKVVT, surface-immobilized peptide], with 99%.

The molecule Ac-FLRR-{surface (amide)} (reading uncertain) [FLRR, surface-immobilized peptide] returned a Normalized Intensity (%) in test [1] of 6%.

In test [1], Ac-QFKVVT-{surface (amide)} (reading uncertain; also: C-terminus amide-linked to surface) [QFKVVT, surface-immobilized peptide] registered a Normalized Intensity (%) of 28%. As for Ac-RQFKV-{surface (amide)} (reading uncertain; also: C-terminus amide-linked to surface) [RQFKV, surface-immobilized peptide], the Normalized Intensity (%) in test [1] is 16%.

Turning to Ac-FKVVT-OH [Ac-FKVVT-OH, free peptide], the IC50 in test [2] is 77000 nM. Same read-out and setting: the value for Ac-RQFKVVT-NH2 [Ac-RQFKVVT-NH2, free peptide] was 7.3 nM. Ac-LRRQF-{surface (amide)} (reading uncertain; also: C-terminus amide-linked to surface) [LRRQF, surface-immobilized peptide] gave a Normalized Intensity (%) in test [1] of 10%. Turning to Ac-LRRQFKVV-{surface (amide)} (reading uncertain; also: C-terminus amide-linked to surface) [LRRQFKVV, surface-immobilized peptide], the Normalized Intensity (%) in test [1] was found to be 44%. On the same count and under the same terms, then Ac-FLRRQF-{surface (amide)} (reading uncertain; also: C-terminus amide-linked to surface) [FLRRQF, surface-immobilized peptide], with 8%; and Ac-LRRQFK-{surface (amide)} (reading uncertain; also: C-terminus amide-linked to surface) [LRRQFK, surface-immobilized peptide], with 12%; and Ac-RQFKVV-{surface (amide)} (reading uncertain; also: C-terminus amide-linked to surface) [RQFKVV, surface-immobilized peptide], with 54%. In test [1], Ac-QFKVV-{surface (amide)} (reading uncertain; also: C-terminus amide-linked to surface) [QFKVV, surface-immobilized peptide] came in with a Normalized Intensity (%) of 17%. Same read-out and setting: the value for Ac-QFKV-{surface (amide)} (reading uncertain; also: C-terminus amide-linked to surface) [QFKV, surface-immobilized peptide] was 11%. Ac-FLRRQFKVVT-{surface (amide)} (reading uncertain; also: C-terminus amide-linked to surface) registered a Normalized Intensity (%) in test [1] of 98%. In addition, the relative signal in test [3] was determined as 100%.

The molecule Ac-FLRRQFKV-{surface (amide)} (reading uncertain; also: C-terminus amide-linked to surface) [FLRRQFKV, surface-immobilized peptide] gave a Normalized Intensity (%) in test [1] of 14%.

Ac-RRQFK-{surface (amide)} (reading uncertain; also: C-terminus amide-linked to surface) [RRQFK, surface-immobilized peptide] came in with a Normalized Intensity (%) in test [1] of 12%.

In test [1], Ac-RRQF-{surface (amide)} (reading uncertain; also: C-terminus amide-linked to surface) [RRQF, surface-immobilized peptide] had a Normalized Intensity (%) of 11%.

Turning to Ac-KVVT-{surface (amide)} (reading uncertain; also: C-terminus amide-linked to surface) [KVVT, surface-immobilized peptide], the Normalized Intensity (%) in test [1] amounted to 11%. The same measure, in the same setting: the value for Ac-FKVVT-{surface (amide)} (reading uncertain) [FKVVT, surface-immobilized peptide] was 13%; that for Ac-RRQFKVVT-{surface (amide)} (reading uncertain; also: C-terminus amide-linked to surface) [RRQFKVVT, surface-immobilized peptide] was 99%. On to Ac-FLRRQ-{surface (amide)} (reading uncertain) [FLRRQ, surface-immobilized peptide], for which, in test [1], the Normalized Intensity (%) amounted to 8%. On to Ac-RQFKVVT-OH [Ac-RQFKVVT-OH, free peptide], for which, in test [2], the IC50 amounted to 11 nM.

On to Ac-LRRQFKVVT-{surface (amide)} (reading uncertain; also: C-terminus amide-linked to surface), for which the Normalized Intensity (%) in test [1] turned out to be 87%.

Ac-FLRRQFKVV-{surface (amide)} (reading uncertain; also: C-terminus amide-linked to surface) showed a Normalized Intensity (%) in test [1] of 37%.

Consider Ac-RRQFKVVT-OH [Ac-RRQFKVVT-OH, free peptide], for which the IC50 in test [2] is 3.9 nM. The same measure, in the same setting: then Ac-QFKVVT-OH [Ac-QFKVVT-OH, free peptide], with 3200 nM. Take Ac-RRQFKV-{surface (amide)} (reading uncertain; also: C-terminus amide-linked to surface) [RRQFKV, surface-immobilized peptide]: the Normalized Intensity (%) in test [1] worked out at 16%. The molecule Ac-LRRQ-{surface (amide)} (reading uncertain; also: C-terminus amide-linked to surface) [LRRQ, surface-immobilized peptide] registered a Normalized Intensity (%) in test [1] of 10%.

With Ac-LRRQFKV-{surface (amide)} (reading uncertain; also: C-terminus amide-linked to surface) [LRRQFKV, surface-immobilized peptide], in test [1], the Normalized Intensity (%) came to 16%. The molecule Ac-RRQFKVV-{surface (amide)} (reading uncertain; also: C-terminus amide-linked to surface) [RRQFKVV, surface-immobilized peptide] returned a Normalized Intensity (%) in test [1] of 58%.

The term IC50 denotes the point on the concentration scale where inhibition reaches its midpoint. Read a high IC50 as a need for much substance.
